In US20080044360A1 (COLLAGEN MEDICAL, published 2008):
Bridge positions count the residues as written; N and C are the ends. Square brackets hold non-standard residues; d marks the D form. Ends that are not written are not given here. Sar = CNCC(=O)O

B1: SEQ ID NO 88 (peptide)
peptide: FWTCMRDQVGEWHCGTE
modifications: disulfide 4-14 (inferred)
notes: cyclic, disulfide
B2: SEQ ID NO 92 (peptide)
peptide: TWACGWTTTGWDNCRWI
modifications: disulfide 4-14 (inferred)
notes: cyclic, disulfide
B3: SEQ ID NO 77 (peptide)
peptide: GWQCQGTDSLDWKCLYM
modifications: disulfide 4-14 (inferred)
notes: cyclic, disulfide
B4: SEQ ID NO 87 (peptide)
peptide: HWTCDQAKGGAWSCSST
modifications: disulfide 4-14 (inferred)
notes: cyclic, disulfide
B5: SEQ ID NO 73 (peptide)
peptide: SWHCALVENSWQCSEA
modifications: disulfide 4-13 (inferred)
notes: cyclic, disulfide
B6: SEQ ID NO 86 (peptide)
peptide: SWYCDWDDRKGWMCGSD
modifications: disulfide 4-14 (inferred)
notes: cyclic, disulfide
B7: SEQ ID NO 90 (peptide)
peptide: TWACGWTTTGWDNCRWI
modifications: disulfide 4-14 (inferred)
notes: cyclic, disulfide
B8: SEQ ID NO 91 (peptide)
peptide: TWACGWTTAGWDNCRWI
modifications: disulfide 4-14 (inferred)
notes: cyclic, disulfide
B9: SEQ ID NO 63 (peptide)
peptide: NWYCSQALDNWSCKLR
modifications: disulfide 4-13 (inferred)
notes: cyclic, disulfide
B10: SEQ ID NO 4 (peptide)
peptide: TWMCVDPPLWRCWVQ
modifications: disulfide 4-12 (inferred)
notes: cyclic, disulfide
B11: SEQ ID NO 53 (peptide)
peptide: GWFCKLVDGNWECSTK
modifications: disulfide 4-13 (inferred)
notes: cyclic, disulfide
B12: SEQ ID NO 69 (peptide)
peptide: HWQCGEKMSFWSCELV
modifications: disulfide 4-13 (inferred)
notes: cyclic, disulfide
B13: SEQ ID NO 76 (peptide)
peptide: FGACDIFPTFHTCPGV
modifications: disulfide 4-13 (inferred)
notes: cyclic, disulfide
B14: SEQ ID NO 55 (peptide)
peptide: SWNCHWRNQGWLCSGG
modifications: disulfide 4-13 (inferred)
notes: cyclic, disulfide
B15: SEQ ID NO 71 (peptide)
peptide: SWHCALMGSRWVCGQN
modifications: disulfide 4-13 (inferred)
notes: cyclic, disulfide
B16: SEQ ID NO 89 (peptide)
peptide: KWHCELDSHMEWSCSGH
modifications: disulfide 4-14 (inferred)
notes: cyclic, disulfide
B17: SEQ ID NO 61 (peptide)
peptide: KWSCYMVDHQWYCREF
modifications: disulfide 4-13 (inferred)
notes: cyclic, disulfide
B18: SEQ ID NO 54 (peptide)
peptide: MWNCTMTKSGWRCFEK
modifications: disulfide 4-13 (inferred)
notes: cyclic, disulfide
B19: SEQ ID NO 57 (peptide)
peptide: RWTCDLQRGDWQCSTI
modifications: disulfide 4-13 (inferred)
notes: cyclic, disulfide
B20: SEQ ID NO 56 (peptide)
peptide: SWNCHMIRNEWRCTGH
modifications: disulfide 4-13 (inferred)
notes: cyclic, disulfide
B21: SEQ ID NO 60 (peptide)
peptide: EWHCVLNDFRWTCGGD
modifications: disulfide 4-13 (inferred)
notes: cyclic, disulfide
B22: SEQ ID NO 75 (peptide)
peptide: ERNCVLNDFRWTCGGD
modifications: disulfide 4-13 (inferred)
notes: cyclic, disulfide
B23: SEQ ID NO 104 (peptide)
peptide: YHACYQA[Sar]CWIW
modifications: disulfide 4-9 (inferred)
notes: cyclic, disulfide
B24: SEQ ID NO 59 (peptide)
peptide: HWQCRLTDYGWNCDER
modifications: disulfide 4-13 (inferred)
notes: cyclic, disulfide
B25: SEQ ID NO 70 (peptide)
peptide: FWRCALLDGHWQCTDH
modifications: disulfide 4-13 (inferred)
notes: cyclic, disulfide
B26: SEQ ID NO 58 (peptide)
peptide: GWVCMMRETDWNCSI
modifications: disulfide 4-13 (inferred)
notes: cyclic, disulfide
B27: SEQ ID NO 62 (peptide)
peptide: HWSCYLGDNGWNCHDR
modifications: disulfide 4-13 (inferred)
notes: cyclic, disulfide
B28: SEQ ID NO 78 (peptide)
peptide: TWACDLDEYGGWQCYTG
modifications: disulfide 4-14 (inferred)
notes: cyclic, disulfide
B29: SEQ ID NO 72 (peptide)
peptide: EWHCVFIQGDWLCNSG
modifications: disulfide 4-13 (inferred)
notes: cyclic, disulfide
B30: SEQ ID NO 79 (peptide)
peptide: FWTCELDFRQSWYCYDK
modifications: disulfide 4-14 (inferred)
notes: cyclic, disulfide
B31: SEQ ID NO 64 (peptide)
peptide: TWICSHNDKGWTCGDQ
modifications: disulfide 4-13 (inferred)
notes: cyclic, disulfide
B32: SEQ ID NO 174 (peptide)
peptide: QWTCSGDEYTW[dH]CNYE
modifications: disulfide 4-13 (inferred); not fully specified (N-terminus); printed as QWTCSGDEYTWhCNYE
notes: cyclic, disulfide
B33: SEQ ID NO 167 (peptide)
peptide: QWT[dC]SGDEYTWHCNYE
modifications: disulfide 4-13 (inferred); not fully specified (N-terminus, C-terminus); printed as QWTcSGDEYTWHCNYE
notes: cyclic, disulfide
B34: SEQ ID NO 147 (peptide)
peptide: GQWTCSGDEYTAHCNYE
modifications: disulfide 5-14 (inferred); not fully specified (C-terminus)
notes: cyclic, disulfide
B35: SEQ ID NO 159 (peptide)
peptide: YHACYQAG[dC]WIW
modifications: disulfide 4-9 (inferred); not fully specified (C-terminus); printed as YHACYQAGcWIW
notes: cyclic, disulfide
B36: SEQ ID NO 108 (peptide)
peptide: YHACYQAGCYIY
modifications: disulfide 4-9 (inferred)
notes: cyclic, disulfide

target: T1, human collagen type I, acid soluble, extracted from placenta (Sigma C7774) (human, UniProt P02452 162-1218; P08123 80-1119); assay: dried collagen assay
T1 construct: tissue extract, gelled and dried in wells; also called dried human collagen; h-Collagen
Procedure: (§1) An additional 90 μL is reserved in a HPLC glass vial as a measure of the total concentration.

T1 sequence (P02452 162-1218 limits assumed, chain 1 of 2): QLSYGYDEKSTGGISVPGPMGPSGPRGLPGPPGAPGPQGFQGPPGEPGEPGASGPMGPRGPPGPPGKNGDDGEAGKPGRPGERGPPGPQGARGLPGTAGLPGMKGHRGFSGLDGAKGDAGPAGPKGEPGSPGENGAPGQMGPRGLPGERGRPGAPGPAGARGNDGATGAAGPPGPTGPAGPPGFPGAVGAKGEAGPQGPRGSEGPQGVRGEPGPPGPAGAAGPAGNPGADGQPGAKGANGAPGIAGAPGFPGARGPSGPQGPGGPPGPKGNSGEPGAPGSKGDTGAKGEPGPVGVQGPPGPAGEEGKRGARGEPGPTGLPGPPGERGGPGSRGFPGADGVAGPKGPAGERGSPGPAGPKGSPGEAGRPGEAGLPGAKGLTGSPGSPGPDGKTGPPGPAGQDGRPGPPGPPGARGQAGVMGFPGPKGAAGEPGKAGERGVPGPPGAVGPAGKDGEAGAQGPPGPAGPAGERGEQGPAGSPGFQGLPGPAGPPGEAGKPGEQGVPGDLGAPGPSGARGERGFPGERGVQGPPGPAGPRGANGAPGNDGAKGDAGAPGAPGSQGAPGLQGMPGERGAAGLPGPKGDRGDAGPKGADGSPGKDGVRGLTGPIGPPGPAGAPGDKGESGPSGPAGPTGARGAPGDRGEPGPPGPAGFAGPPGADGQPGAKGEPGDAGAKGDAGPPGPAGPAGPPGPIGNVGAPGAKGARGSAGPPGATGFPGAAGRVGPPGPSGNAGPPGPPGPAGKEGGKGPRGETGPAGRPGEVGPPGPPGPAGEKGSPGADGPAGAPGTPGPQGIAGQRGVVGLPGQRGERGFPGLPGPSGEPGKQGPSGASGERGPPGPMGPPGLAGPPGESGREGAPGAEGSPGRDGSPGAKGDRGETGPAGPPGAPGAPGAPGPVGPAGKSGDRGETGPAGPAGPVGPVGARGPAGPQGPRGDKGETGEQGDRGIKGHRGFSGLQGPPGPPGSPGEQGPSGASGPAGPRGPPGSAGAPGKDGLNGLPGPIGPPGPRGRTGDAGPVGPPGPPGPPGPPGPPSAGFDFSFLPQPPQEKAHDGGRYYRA
T1 sequence (P08123 80-1119 limits assumed, chain 2 of 2): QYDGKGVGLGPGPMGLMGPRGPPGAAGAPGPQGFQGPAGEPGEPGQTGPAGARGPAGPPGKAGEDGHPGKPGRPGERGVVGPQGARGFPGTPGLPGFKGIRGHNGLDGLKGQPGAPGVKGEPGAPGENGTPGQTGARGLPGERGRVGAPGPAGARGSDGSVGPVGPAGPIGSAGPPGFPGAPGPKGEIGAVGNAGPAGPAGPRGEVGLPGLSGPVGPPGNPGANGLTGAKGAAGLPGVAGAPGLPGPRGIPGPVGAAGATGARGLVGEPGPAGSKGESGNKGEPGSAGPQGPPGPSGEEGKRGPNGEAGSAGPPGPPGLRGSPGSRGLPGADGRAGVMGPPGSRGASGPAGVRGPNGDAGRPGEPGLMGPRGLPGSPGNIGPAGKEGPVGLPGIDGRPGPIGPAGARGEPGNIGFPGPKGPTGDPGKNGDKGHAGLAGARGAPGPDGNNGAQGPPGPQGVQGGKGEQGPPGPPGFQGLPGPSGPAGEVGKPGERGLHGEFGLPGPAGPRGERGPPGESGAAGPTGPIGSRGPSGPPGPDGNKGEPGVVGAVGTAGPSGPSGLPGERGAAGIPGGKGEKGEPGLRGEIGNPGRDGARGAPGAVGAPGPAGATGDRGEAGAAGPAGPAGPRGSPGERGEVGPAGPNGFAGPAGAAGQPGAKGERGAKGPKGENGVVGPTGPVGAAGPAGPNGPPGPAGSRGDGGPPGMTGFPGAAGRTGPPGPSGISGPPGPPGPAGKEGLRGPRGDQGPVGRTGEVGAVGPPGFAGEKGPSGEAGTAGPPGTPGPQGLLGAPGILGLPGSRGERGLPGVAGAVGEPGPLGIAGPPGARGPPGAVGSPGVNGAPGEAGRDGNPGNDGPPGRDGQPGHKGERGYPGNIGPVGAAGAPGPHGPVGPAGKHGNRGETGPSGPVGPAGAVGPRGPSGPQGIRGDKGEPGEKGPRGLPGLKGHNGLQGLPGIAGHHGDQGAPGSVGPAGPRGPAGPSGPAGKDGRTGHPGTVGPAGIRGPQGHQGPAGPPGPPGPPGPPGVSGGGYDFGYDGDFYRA

Binder	% bound
B1	1%
B2	34%
B3	12%
B4	1%
B5	1%
B6	2%
B7	34%
B8	28%
B9	8%
B10	45%
B11	12%
B12	3%
B13	1%
B14	12%
B15	3%
B16	1%

Binder	% bound
B17	9%
B18	12%
B19	11%
B20	11%
B21	10%
B22	10%
B23	12%
B24	10%
B25	3%
B26	10%
B27	9%
B28	8%
B29	1%
B30	8%
B31	8%

target: T2, rat collagen, acid soluble, type I, rat tail (Upstate 08-115) (rat, UniProt P02454 152-1207; P02466 86-1125); assay: dried collagen assay
T2 construct: tissue extract, gelled and dried in wells; also called dried rat collagen
Procedure: as §1

T2 sequence (P02454 152-1207, chain 1 of 2): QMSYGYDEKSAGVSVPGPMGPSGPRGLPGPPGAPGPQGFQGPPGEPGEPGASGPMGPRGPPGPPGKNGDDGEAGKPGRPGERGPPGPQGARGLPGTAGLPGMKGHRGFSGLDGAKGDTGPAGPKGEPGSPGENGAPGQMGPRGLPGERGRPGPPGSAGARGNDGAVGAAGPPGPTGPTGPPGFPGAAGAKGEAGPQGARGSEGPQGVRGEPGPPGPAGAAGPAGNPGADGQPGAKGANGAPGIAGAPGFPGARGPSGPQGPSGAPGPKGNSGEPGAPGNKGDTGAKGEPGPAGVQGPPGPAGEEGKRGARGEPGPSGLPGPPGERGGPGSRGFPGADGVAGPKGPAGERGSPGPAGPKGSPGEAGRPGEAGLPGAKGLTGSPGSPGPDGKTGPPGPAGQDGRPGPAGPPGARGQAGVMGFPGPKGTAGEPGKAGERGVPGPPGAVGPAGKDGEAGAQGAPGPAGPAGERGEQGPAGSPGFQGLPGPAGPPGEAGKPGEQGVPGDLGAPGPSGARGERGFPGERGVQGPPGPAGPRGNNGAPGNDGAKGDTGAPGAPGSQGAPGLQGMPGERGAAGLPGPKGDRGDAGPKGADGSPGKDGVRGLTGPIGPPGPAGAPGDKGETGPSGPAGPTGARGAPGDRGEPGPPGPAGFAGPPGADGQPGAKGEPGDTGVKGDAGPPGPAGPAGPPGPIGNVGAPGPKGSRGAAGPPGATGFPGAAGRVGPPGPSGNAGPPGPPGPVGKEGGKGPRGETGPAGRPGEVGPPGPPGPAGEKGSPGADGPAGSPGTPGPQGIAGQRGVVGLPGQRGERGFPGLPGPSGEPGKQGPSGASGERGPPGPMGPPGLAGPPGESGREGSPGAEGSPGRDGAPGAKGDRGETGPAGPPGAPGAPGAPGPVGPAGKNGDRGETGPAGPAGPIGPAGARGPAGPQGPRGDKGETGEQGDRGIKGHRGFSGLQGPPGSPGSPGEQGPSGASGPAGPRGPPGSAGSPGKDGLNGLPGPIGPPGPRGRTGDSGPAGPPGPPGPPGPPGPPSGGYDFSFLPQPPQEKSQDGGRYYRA
T2 sequence (P02466 86-1125, chain 2 of 2): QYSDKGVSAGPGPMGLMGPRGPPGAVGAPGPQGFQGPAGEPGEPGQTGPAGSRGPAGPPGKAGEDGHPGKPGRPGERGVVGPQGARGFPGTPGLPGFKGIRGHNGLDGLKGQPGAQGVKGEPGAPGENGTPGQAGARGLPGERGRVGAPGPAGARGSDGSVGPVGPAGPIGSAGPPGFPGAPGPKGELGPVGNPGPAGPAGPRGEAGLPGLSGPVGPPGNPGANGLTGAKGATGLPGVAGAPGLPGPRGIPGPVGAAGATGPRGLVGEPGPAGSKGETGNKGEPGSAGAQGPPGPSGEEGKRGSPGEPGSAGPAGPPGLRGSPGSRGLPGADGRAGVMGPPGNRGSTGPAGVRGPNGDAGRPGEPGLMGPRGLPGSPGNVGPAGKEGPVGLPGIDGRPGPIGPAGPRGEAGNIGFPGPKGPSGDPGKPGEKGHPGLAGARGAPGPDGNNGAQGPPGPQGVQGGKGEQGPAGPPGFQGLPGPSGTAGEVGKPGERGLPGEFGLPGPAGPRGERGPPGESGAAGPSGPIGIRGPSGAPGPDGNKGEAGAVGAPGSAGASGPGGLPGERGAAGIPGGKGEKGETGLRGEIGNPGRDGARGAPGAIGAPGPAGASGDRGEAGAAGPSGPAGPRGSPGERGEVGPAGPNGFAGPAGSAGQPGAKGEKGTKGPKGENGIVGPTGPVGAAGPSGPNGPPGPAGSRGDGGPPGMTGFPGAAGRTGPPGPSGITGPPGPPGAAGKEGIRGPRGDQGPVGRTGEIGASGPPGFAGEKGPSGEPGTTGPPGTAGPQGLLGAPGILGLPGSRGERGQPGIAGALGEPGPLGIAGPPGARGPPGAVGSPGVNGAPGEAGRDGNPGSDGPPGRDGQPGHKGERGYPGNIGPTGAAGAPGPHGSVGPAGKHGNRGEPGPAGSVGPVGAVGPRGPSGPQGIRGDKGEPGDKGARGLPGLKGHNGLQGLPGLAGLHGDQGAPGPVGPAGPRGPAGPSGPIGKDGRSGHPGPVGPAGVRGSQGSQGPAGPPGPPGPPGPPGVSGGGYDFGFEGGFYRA

Binder	% bound
B32	0%
B33	0%
B34	1%
B35	27%
B23	19%
B36	12%
